Results from US20240117018A1.

How the values were obtained:
Assay in all cases: cell-based or functional assay
[1] = biological target: Env of HIV-1 pseudovirus 9004SS_A3_4 (HIV-1)
[2] = biological target: Env of HIV-1 pseudovirus Q769.d22 (HIV-1)
[3] = biological target: Env of HIV-1 pseudovirus HIV-16055-2.3 (HIV-1)
[4] = biological target: Env of HIV-1 pseudovirus 6535.3 (HIV-1)
[5] = biological target: Env of HIV-1 pseudovirus ZM109F.PB4 (HIV-1)
[6] = biological target: Env of HIV-1 pseudovirus CNE58 (HIV-1)
[7] = biological target: Env of HIV-1 pseudovirus Q842.d12 (HIV-1)
[8] = biological target: Env of HIV-1 pseudovirus ZM53M.PB12 (HIV-1)
[9] = biological target: Env of HIV-1 pseudovirus CNE20 (HIV-1)
[10] = biological target: Env of HIV-1 pseudovirus 928-28 (HIV-1)
[11] = biological target: Env of HIV-1 pseudovirus 1006_11_C3_1601 (HIV-1)
[12] = biological target: Env of HIV-1 pseudovirus WITO4160.33 (HIV-1)
[13] = biological target: Env of HIV-1 pseudovirus 1056_10_TA11_1826 (HIV-1)
[14] = biological target: Env of HIV-1 pseudovirus CAP210.2.00.E8 (HIV-1)
[15] = biological target: HIV-1 Env pseudovirus ZM247v1(Rev-) (HIV-1)
[16] = biological target: HIV-1 Env pseudovirus Ce2010_F5 (HIV-1)
[17] = biological target: HIV-1 Env pseudovirus 62357_14_D3_4589 (HIV-1)
[18] = biological target: HIV-1 Env pseudovirus WITO4160.33 (HIV-1)
[19] = biological target: HIV-1 Env pseudovirus Ce704809221_1B3 (HIV-1)
[20] = biological target: HIV-1 Env pseudovirus 7030102001E5(Rev-) (HIV-1)
[21] = biological target: HIV-1 Env pseudovirus Q23.17 (HIV-1)
[22] = biological target: HIV-1 Env pseudovirus CAAN5342.A2 (HIV-1)
[23] = biological target: HIV-1 Env pseudovirus 1056_10_TA11_1826 (HIV-1)
[24] = biological target: HIV-1 Env pseudovirus ZM214M.PL15 (HIV-1)
[25] = biological target: HIV-1 Env pseudovirus CNE19 (HIV-1)
[26] = biological target: HIV-1 Env pseudovirus Ce2060_G9 (HIV-1)
[27] = biological target: HIV-1 Env pseudovirus HIV-001428-2.42 (HIV-1)
[28] = biological target: HIV-1 Env pseudovirus Ce1172_H1 (HIV-1)
[29] = biological target: HIV-1 Env pseudovirus 1006_11_C3_1601 (HIV-1)
[30] = biological target: HIV-1 Env pseudovirus ZM109F.PB4 (HIV-1)
[31] = biological target: HIV-1 Env pseudovirus 0815.v3.c3 (HIV-1)
[32] = biological target: HIV-1 Env pseudovirus 6041.v3.c23 (HIV-1)
[33] = biological target: HIV-1 Env pseudovirus 6540.v4.c1 (HIV-1)
[34] = biological target: HIV-1 Env pseudovirus T255-34 (HIV-1)
[35] = biological target: HIV-1 Env pseudovirus T250-4 (HIV-1)

10E8 (antibody) gave an IC50 [1] of 1.16 µg/mL, an IC80 [1] of 6.76 µg/mL and an IC50 [2] of 1.67 µg/mL. For the same substance, the IC80 [2] was 10 µg/mL, the IC50 [3] was 0.722 µg/mL and the IC80 [3] was 6.5 µg/mL. The IC50 [4] was 0.081 µg/mL, the IC80 [4] was 1.32 µg/mL and the IC50 [5] was 0.295 µg/mL. It also gave an IC80 [5] of 1.89 µg/mL, an IC50 [6] of 1.29 µg/mL and an IC80 [6] of 8.27 µg/mL. For the same substance, the IC50 [7] was 4.19 µg/mL, the IC80 [7] was over 10 µg/mL and the IC50 [8] was 3.98 µg/mL. The IC80 [8] was over 10 µg/mL, the IC50 [9] was 1.25 µg/mL and the IC80 [9] was 6.58 µg/mL. The IC50 [10] was 0.384 µg/mL, the IC80 [10] was 1.96 µg/mL and the IC50 [11] was 0.172 µg/mL. The IC80 [11] was 3 µg/mL, the IC50 [12] was 0.094 µg/mL and the IC80 [12] was 1.23 µg/mL. The IC50 [13] was 0.134 µg/mL, the IC80 [13] was 1.03 µg/mL and the IC50 [14] was 0.798 µg/mL. For the same substance, the IC80 [14] was 3.89 µg/mL.
N49P11 (antibody) showed an IC50 [15] of 7.48 µg/mL, an IC80 [15] of 21.5 µg/mL and an MPI [15] of 100. For the same substance, the IC50 [16] was 0.38 µg/mL, the IC80 [16] was 3.27 µg/mL and the MPI [16] was 100. It also gave an IC50 [17] of 0.599 µg/mL, an IC80 [17] of 3.56 µg/mL and an MPI [17] of 100. The IC50 [18] was 4.86 µg/mL, the IC80 [18] was 13.2 µg/mL and the MPI [18] was 100. It also gave an IC50 [19] of 0.644 µg/mL, an IC80 [19] of 3.3 µg/mL and an MPI [19] of 100. It also gave an IC50 [20] of 0.635 µg/mL, an IC80 [20] of 2.29 µg/mL and an MPI [20] of 100. The IC50 [21] was 0.034 µg/mL, the IC80 [21] was 0.254 µg/mL and the MPI [21] was 100. For the same substance, the IC50 [22] was 9.03 µg/mL, the IC80 [22] was 20.8 µg/mL and the MPI [22] was 100. It also gave an IC50 [23] of 4.77 µg/mL, an IC80 [23] of 14.2 µg/mL and an MPI [23] of 100. It also gave an IC50 [24] of 1.35 µg/mL, an IC80 [24] of 8.98 µg/mL and an MPI [24] of 100. For the same substance, the IC50 [25] was 0.437 µg/mL, the IC80 [25] was 5.5 µg/mL and the MPI [25] was 100. For the same substance, the IC50 [26] was 3.33 µg/mL, the IC80 [26] was 13.2 µg/mL and the MPI [26] was 100. The IC50 [27] was 0.221 µg/mL, the IC80 [27] was 1.64 µg/mL and the MPI [27] was 100. The IC50 [28] was 3.55 µg/mL, the IC80 [28] was 19.2 µg/mL and the MPI [28] was 100. It also gave an IC50 [29] of 0.125 µg/mL, an IC80 [29] of 0.487 µg/mL and an MPI [29] of 100. For the same substance, the IC50 [30] was 5.2 µg/mL, the IC80 [30] was 19.4 µg/mL and the MPI [30] was 100.
VRC01 (antibody) gave an IC50 (Titer in TZM.bl cells) [31] of 0.06 µg/mL, an IC80 (Titer in TZM.bl cells) [31] of 0.13 µg/mL and an IC50 (Titer in TZM.bl cells) [15] of 0.35 µg/mL. For the same substance, the IC80 (Titer in TZM.bl cells) [15] was 1.29 µg/mL, the IC50 (Titer in TZM.bl cells) [32] was 0.02 µg/mL and the IC80 (Titer in TZM.bl cells) [32] was 0.08 µg/mL. It also gave an IC50 (Titer in TZM.bl cells) [16] of 0.32 µg/mL, an IC80 (Titer in TZM.bl cells) [16] of 1.07 µg/mL and an IC50 (Titer in TZM.bl cells) [17] of 0.96 µg/mL. It also gave an IC80 (Titer in TZM.bl cells) [17] of 4.68 µg/mL, an IC50 (Titer in TZM.bl cells) [18] of 0.15 µg/mL and an IC80 (Titer in TZM.bl cells) [18] of 0.41 µg/mL. The IC50 (Titer in TZM.bl cells) [33] was over 50 µg/mL, the IC80 (Titer in TZM.bl cells) [33] was over 50 µg/mL and the IC50 (Titer in TZM.bl cells) [19] was 0.55 µg/mL. For the same substance, the IC80 (Titer in TZM.bl cells) [19] was 2.05 µg/mL, the IC50 (Titer in TZM.bl cells) [20] was 0.54 µg/mL and the IC80 (Titer in TZM.bl cells) [20] was 2.08 µg/mL. It also gave an IC50 (Titer in TZM.bl cells) [34] of 0.7 µg/mL, an IC80 (Titer in TZM.bl cells) [34] of 2.7 µg/mL and an IC50 (Titer in TZM.bl cells) [21] of 0.09 µg/mL. For the same substance, the IC80 (Titer in TZM.bl cells) [21] was 0.261 µg/mL, the IC50 (Titer in TZM.bl cells) [22] was 0.82 µg/mL and the IC80 (Titer in TZM.bl cells) [22] was 2.8 µg/mL. It also gave an IC50 (Titer in TZM.bl cells) [23] of 0.92 µg/mL, an IC80 (Titer in TZM.bl cells) [23] of 3.28 µg/mL and an IC50 (Titer in TZM.bl cells) [24] of 0.44 µg/mL. For the same substance, the IC80 (Titer in TZM.bl cells) [24] was 2.6 µg/mL, the IC50 (Titer in TZM.bl cells) [35] was over 50 µg/mL and the IC80 (Titer in TZM.bl cells) [35] was over 50 µg/mL. The IC50 (Titer in TZM.bl cells) [26] was 0.29 µg/mL, the IC80 (Titer in TZM.bl cells) [26] was 1.48 µg/mL and the IC50 (Titer in TZM.bl cells) [27] was 0.02 µg/mL. It also gave an IC80 (Titer in TZM.bl cells) [27] of 0.06 µg/mL, an IC50 (Titer in TZM.bl cells) [28] of over 10 µg/mL and an IC80 (Titer in TZM.bl cells) [28] of over 10 µg/mL. The IC50 (Titer in TZM.bl cells) [29] was 0.15 µg/mL, the IC80 (Titer in TZM.bl cells) [29] was 0.39 µg/mL and the IC50 (Titer in TZM.bl cells) [30] was 0.13 µg/mL. The IC80 (Titer in TZM.bl cells) [30] was 0.75 µg/mL.
